Experimental data taken from patent publication US20190330271A1 (HANGZHOU WISDOM PANACEA BIOLOGICS, published 2019).

B1: ZR + K (SEQ ID NO: 6), histidine-tagged (peptide)
peptide: SFFNNKRK
notes: ZR derivative with a Lys added after Arg7; not shown: histidine tag
B2: ZR + N (SEQ ID NO: 5), histidine-tagged (peptide)
peptide: SFFNNNKR
notes: ZR derivative with one more Asn; not shown: histidine tag
B3: ZR4-ΔN (SEQ ID NO: 3), histidine-tagged (peptide)
peptide: SFFNKR
notes: ZR derivative with one Asn deleted; not shown: histidine tag

Each binder was assayed against T1, Aβ42 oligomers (UniProt P05067 672-713) (assay: ELISA on coated Aβ42 oligomers, His-tagged polypeptide at 1 µg per well).
T1 construct: domain: Aβ42; Oligomeric state
T1 sequence (P05067 672-713 limits assumed): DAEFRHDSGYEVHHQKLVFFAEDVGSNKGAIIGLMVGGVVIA
Procedure: 100 μL of monomers, oligomers or fibers of Aβ42, PrP, amylin, insulin or lysozyme were respectively coated onto a 96-well ELISA microplate at 1 μg/well, BSA was used as a negative control. The plate were then placed at 37° C. for 2 h, blocked with 200 μL/well of 3% BSA at 37° C. for 2 h, and washed 3 times with PBS. 100 μL of histidine-tagged ZR polypeptide solution was added, and the plate was incubated at room temperature for 1 h, and then washed 3 times with PBS containing 0.1% Tween-20. 100 μL of HRP-linked antibody 9E10 which can recognize the histidine tag was added to each well, and the plate was incubated at room temperature for 1 h, and then washed 3 times with PBS containing 0.1% Tween-20. 100 μL of TMB was added to each well, and the plate was placed at 37° C. for 20 min. Then, 50 μL of 1 mmol/L sulfuric acid was added to each well to terminate the reaction, and OD450 values were measured using a microplate reader. The above procedure was repeated for 3 times under the same condition.

Binder | OD450
B1 | 0.56
B2 | 0.54
SAFQNKR (not shown: histidine tag) [ZR4-FN/AQ (SEQ ID NO: 4), histidine-tagged] | 0.47
B3 | 0.49
